According to patent US20230272086A1 (CHIA TAI TIANQING PHARMACEUTICAL GROUP, published 2023):
Residue numbers refer to the chain shown, from its start. Values belong to the binder of their own block, whether it stands above or below them.

Assays:
[1] = biological target: T1, recombinant protein containing hST2 extracellular domain with mouse antibody heavy chain Fc tag (hST2-ECD-mFc) (human); assay: ELISA, plate coated with hST2-ECD-mFc
T1 construct: Used for SPR and for ELISA of chimeric and humanized antibodies; also called human ST2 antigen
T1 chain: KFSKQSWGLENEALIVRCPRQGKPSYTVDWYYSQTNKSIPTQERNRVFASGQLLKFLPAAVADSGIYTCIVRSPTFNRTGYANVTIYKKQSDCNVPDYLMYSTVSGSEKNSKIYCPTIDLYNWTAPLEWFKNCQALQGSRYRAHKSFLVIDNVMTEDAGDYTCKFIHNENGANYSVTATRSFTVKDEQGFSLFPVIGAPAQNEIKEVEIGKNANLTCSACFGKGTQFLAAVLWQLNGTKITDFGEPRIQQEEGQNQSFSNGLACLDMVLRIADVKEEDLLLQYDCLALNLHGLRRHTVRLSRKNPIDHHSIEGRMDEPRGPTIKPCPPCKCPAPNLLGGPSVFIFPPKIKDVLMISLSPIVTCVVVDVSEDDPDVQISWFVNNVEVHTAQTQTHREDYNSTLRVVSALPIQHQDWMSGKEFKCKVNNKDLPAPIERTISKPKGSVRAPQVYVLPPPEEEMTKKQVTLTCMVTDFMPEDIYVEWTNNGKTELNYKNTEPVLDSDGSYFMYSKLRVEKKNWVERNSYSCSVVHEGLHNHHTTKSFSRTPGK
Experimental: ST2 binding screening and analysis of antibodies were performed by ELISA using hST2-ECD-mFc (for assays of chimeric and humanized antibodies), hST2-ECD-hFc protein (for assays of hybridoma antibodies) and Cyno-ST2-his (Sino biological, 90915-C08H) as antigens. A high-adsorption 96-well plate (Costar, 9018) was coated with 2 µg/mL hST2-ECD-mFc or Cyno-ST2-his antigen at 100 µL/well and incubated overnight at 4° C. After the antigen not adsorbed was well washed off, the non-specific binding sites were blocked with a blocking buffer (PBS containing 2% bovine serum albumin). After the plate was washed three times with a washing buffer (PBS containing 0.05% (v/v) Tween 20), the anti-ST2 antibodies (serially diluted 3-fold from an initial concentration of 10 nM to 8 concentrations: 3.333 nM, 1.111 nM, 0.370 nM, 0.123 nM, 0.041 nM, 0.014 nM, 0.005 nM, and 0.002 nM) were added at 100 µL/well, and the plate was incubated at room temperature for 1 h. After the plate was washed with the washing buffer, a horseradish peroxidase (HRP)-conjugated secondary antibody was added, and the plate was incubated for another 60 min. After the plate was washed with the washing buffer, the substrate TMB solution (Thermo, 00-4201-56) was added at 100 µL/well, and the plate was incubated at room temperature for 2 min. A stop solution (2 N H₂SO₄) was added at 100 µL/well to terminate the reactions. Colorimetric signals were generated and read at 450 nm using a microplate reader (PE, Envision). The data were analyzed using GraphPad Prism5, and the EC₅₀ values were calculated.

[2] = biological target: recombinant protein containing hST2 extracellular domain with human antibody heavy chain Fc tag (hST2-ECD-hFc) (human); assay: competition ELISA, coated hST2-ECD-hFc, antibody then biotin-labeled hIL33 Avitag (competitor)
Experimental: Whether the anti-ST2 antibodies were able to block the binding of hIL33 to hST2 was determined based on ELISA. A high-adsorption 96-well plate was coated with 2 µg/mL hST2-ECD-hFc at 100 µL/well and incubated overnight at 4° C. After the antigen not adsorbed was well washed off, the non-specific binding sites were blocked with a blocking buffer (PBST containing 1% bovine serum albumin). After the plate was washed three times with a washing buffer (PBST, PBS containing 0.05% (v/v) Tween 20), the anti-ST2 antibodies (serially diluted 2-fold from an initial concentration of 66.67 nM to 8 concentrations) were added at 100 µL/well, and the plate was incubated at 37° C. for 1 h After the plate was washed 3 times with the washing buffer, 100 µL of biotin-labeled hIL33 Avitag (with a concentration of 0.1 µg/mL) was added to each well, and the plate was incubated at 37° C. for 1 h. After the plate was washed 3 times with the washing buffer, a 1:1000 diluted secondary antibody Avidin HRP (Jackson immunoresearch, 016-030-084) was added at 100 µL/well, and the plate was incubated at room temperature for 1 h After the plate was washed with the washing buffer, the substrate TMB solution (Thermo, 00-4201-56) was added at 100 µL/well, and the plate was incubated at room temperature for 3 min. 50 µL of a stop solution (2 N H₂SO₄) was added to terminate the reactions. Colorimetric signals were generated and read at 450 nm using a plate reader (PE, Envision). The data were analyzed using GraphPad Prism5, and the IC₅₀ values were calculated.

B1: Chimeric 7D1 (antibody, human IgG2, kappa, V domains shown)
VH: QVQLQQSGAELVRPGASVTLSCKASGYTFTDYEMHWVKQTPVHGLDWIGTIDPETGDTAYNQKFKGRATLTADKSSSTAYMELSSLTSEDSAVYYCTRYSYTNSPYGMDYWGQGTSVTVSS
VL: DVVMTQTPKFLLVSAGDRVTITCKASQSVSNDVAWYQQKPGQSPKLLIYYASNRYTGVPDRFTGSGYGTDFTFTINTVQAEDLAVYFCQQDYSSPYTFGGGTKLEIKR
notes: also called xi7D1
EC50 [1]: 0.191 nM
IC50 [2]: 2.9 nM

B3: Chimeric 17E2 (antibody, human IgG2, kappa, V domains shown)
VH: QVQLQQSGAELVRPGASVTLSCKASGYTFTDYEMHWVKQTPVLGLEWIGAIDPETGDTAYNQKFKGKATLTADKSSSTAYMELSSLASEDSAVYYCIRVDSNYDYFDYWGQDTTLTVSS
VL: DIVLTQSPPILSASPGEKVTMTCRASSSVSYMHWYQQKPGSSPKPWIYDTSNLASGVPARFSGSGSGTSYSLTISRVEAEDAATYYCQQWSSNPLTFGAGTKLELKR
notes: also called xi17E2
EC50 [1]: 0.235 nM
IC50 [2]: 3.35 nM

B4: Chimeric 31C8 (antibody, human IgG2, kappa, V domains shown)
VH: QVQLQQSGPELVRPGASVTLSCKASGYIFIDSEMHWVKQTPVHGLEWIGAIDPETGDTVYNQKFKGKATLTADKSSSTASMELSSLTSEDSAVYYCTGSTTDYYFAYWGQGTTLTVSS
VL: DIVMTQAAFSNPVTLGTSASISCRSSKSLLHSNGIIYLYWYLQKPGQSPQLLIYQMSNLASGVPDRFSSSGSGTDFTLRISRVEAEDVGVYYCAQNLELPFTFGSGTKLEIKR
notes: also called xi31C8
EC50 [1]: 0.184 nM
IC50 [2]: 2.5 nM

Now those with a lower EC50 [1], led by results:

EC50 [1]: 0.175 nM
IC50 [2]: 2.53 nM
B7: Chimeric 26A1 (antibody, human IgG2, kappa, V domains shown)
VH: B4 VH with P9A, G26D, I30T, M34I, P41L, V59A, S80Y, D90G, T97S, Y103C
VL: B4 VL
notes: also called xi26A1

EC50 [1]: 0.172 nM
IC50 [2]: 2.79 nM
B6: Chimeric 8F4 (antibody, human IgG2, kappa, V domains shown)
VH: B4 VH with P9A, Y27H, I30T, S32Y, H35Q, I51F, V59A, S80Y, T97S, T113S
VL: B4 VL with I2V, A7T
notes: also called xi8F4

EC50 [1]: 0.157 nM
IC50 [2]: 2.52 nM
B5: Chimeric 3C6 (antibody, human IgG2, kappa, V domains shown)
VH: QVQLQQSGAEVVRPGASVTLSCKASDYTITDYEMHWVKQTPVHGLEWIGAIDPETGDTAYSQNFKGKATLTADESSSTAYMELSSLTSEDSAVYYCSRSATDYYFASWGQGTTLTVSS
VL: B4 VL with F9I, I21M, I36T, Q47H, R79K
notes: also called xi3C6

EC50 [1]: 0.113 nM
IC50 [2]: 2.88 nM
B2: RG6149 (antibody Ab2 in CN104334582, prepared in-house) (antibody, human IgG2, kappa, V domains shown)
VH: EVQLVQSGAEVKKPGESLKISCKGSGYSFTNYWIGWVRQMPGKGLEWMGIIYPGNSDTRFSPSFQGQVTISADKSITTAYLQWSSLKASDTAMYYCARHGTSSDYYGLDVWGQGTTVTVSS
VL: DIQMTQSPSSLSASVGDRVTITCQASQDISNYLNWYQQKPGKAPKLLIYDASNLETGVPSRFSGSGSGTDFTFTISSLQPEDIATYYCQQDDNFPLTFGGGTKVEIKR
notes: Control anti-ST2 antibody
